The target of this experiment is all six recombinant human Tau isoforms. Description: immunoaffinity purification on 13A6 beads, trypsin digestion and LC-MS/MS, with against without purification.

B1: mouse monoclonal anti-Tau antibody clone 13A6 (antibody, V domains shown)
VH: EVQLQQSGAELVRPGASVKLPCTASGFNIKDDYMNWVMQRPERGLEWIGWIDPENGDTAYASKFQGKATMTADTSSNTAYLQLSSLTSEDTAVYYCTSGGRFDYWGQGTSLTVSS
VL: DVLMTQTPLSLPVSLGDQASISCRSSQSIVHSNGSTYLEWYLQKPGQSPKLLIYKVSNRFSGVPDRFSGSGSGTDFTLKINRVEAEDLGVYYCFQGSHVPWTFGGGTKLEIK
For B1, the percent recovery lay in the range of 60 to 75%.

The record behind these values is patent US20150253341A1.
